These results are taken from publication PMC5841405.

The target of one experiment is MBP-LIC1FL (human). The experiment can be described thus: ITC; protein or peptide in the syringe titrated into the protein in the cell; 20 mM HEPES pH 7.5, 100 mM NaCl, 0.25 mM TCEP; temperature listed in the figures (20 °C for most titrations).
The target of another experiment is Hook1_(11–443) (human) (UniProt Q9UJC3). The experiment can be described thus: ITC; MBP-LIC1FL in the syringe, Hook1_(11–443) in the cell; 30 °C; 20 mM HEPES pH 7.5, 100 mM NaCl, 0.25 mM TCEP. A general note: In ITC the heat of successive injections is recorded.
Another experiment addresses LIC1_(433–458) (human). The experiment is described as follows: ITC; protein or peptide in the syringe titrated into the protein in the cell; 20 mM HEPES pH 7.5, 100 mM NaCl, 0.25 mM TCEP; temperature listed in the figures (20 °C for most titrations).
The target in the next experiment is MBP-LIC1_(1–461) (human). Described as above.

Sequence of Hook1_(11–166) (Q9UJC3 11-166): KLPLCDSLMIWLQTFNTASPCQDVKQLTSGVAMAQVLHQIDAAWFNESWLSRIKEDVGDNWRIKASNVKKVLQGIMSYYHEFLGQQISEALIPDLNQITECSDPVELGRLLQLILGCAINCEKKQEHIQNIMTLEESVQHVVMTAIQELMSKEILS
Sequence of Hook1_(11–443) (human) (Q9UJC3 11-443): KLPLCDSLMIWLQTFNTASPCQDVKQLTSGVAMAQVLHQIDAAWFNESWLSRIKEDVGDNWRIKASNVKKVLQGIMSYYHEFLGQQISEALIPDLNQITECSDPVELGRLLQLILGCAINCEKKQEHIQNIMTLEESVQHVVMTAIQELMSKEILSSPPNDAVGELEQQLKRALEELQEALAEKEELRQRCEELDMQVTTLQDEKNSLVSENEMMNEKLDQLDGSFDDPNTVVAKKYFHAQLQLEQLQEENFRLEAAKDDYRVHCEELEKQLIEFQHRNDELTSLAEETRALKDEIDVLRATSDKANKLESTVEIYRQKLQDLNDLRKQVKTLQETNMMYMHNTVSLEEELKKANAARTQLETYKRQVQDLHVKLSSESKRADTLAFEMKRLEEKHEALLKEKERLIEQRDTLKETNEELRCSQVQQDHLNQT

By Kd is commonly meant the constant that tells how readily two partners part at equilibrium. Lower therefore signals a tighter complex. By stoichiometry N is commonly meant a count of units in the complex or per binding partner. With “Hook1_(1–239)GCN4 (from UniProt Q9UJC3-1 1-239)”, in the experiment with MBP-LIC1FL (human), the Kd amounted to 12.9 µM and the stoichiometry N was 1.
Regarding MBP-LIC1FL (natural protein), in the experiment with Hook1_(11–443) (human), the Kd is 8.1 µM and the stoichiometry N turned out to be 1.
Consider “Hook1_(11–166) (from UniProt Q9UJC3-1 11-166) (domain or fragment)”, for which the values for the Kd with LIC1_(433–458) (human), with MBP-LIC1FL (human) and with MBP-LIC1_(1–461) (human) were 15.7 µM, 12.7 µM and 10.1 µM, respectively. Besides, the stoichiometry N with MBP-LIC1FL (human) turned out to be 1.
